Results on 1 substance are retold here after patent publication US20220194997A1, “SUMO PEPTIDES FOR TREATING NEURODEGENERATIVE DISEASES” (The Chinese University of Hong Kong, priority 2019, published 2022).

For this test, the target named is SUMO1(15-55) (human). Description: MST (FIG. 11b).
SUMO1(15-55) (human), sequence (peptide, as listed by the source limits assumed): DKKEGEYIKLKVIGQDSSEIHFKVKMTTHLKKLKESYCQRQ

Regarding αsyn(33-58) (peptide), the binding ability relative to the sole β1, β2-strand peptides (fold of the sole β1, β2-strand peptides) turned out to be 0.037.
